Paper PMC10415612
Read-outs that look alike come from different tables or passages of the source.

How the values were obtained:
[1] = molecular target: bacterial proteasome activator (Bpa), fluorescein-labelled (M. tuberculosis) (UniProt P9WKX3); experiment: MST
[2] = molecular target: bacterial proteasome activator (Bpa), fluorescein-labelled (M. tuberculosis) (UniProt P9WKX3)
[3] = molecular target: bacterial proteasome activator (Bpa), fluorescein-labelled (M. tuberculosis) (UniProt P9WKX3); experiment: MST; remark: listed apart in the source
[4] = molecular target: bacterial proteasome activator (Bpa), labelled with RED-NHS second generation dye (M. tuberculosis) (UniProt P9WKX3); experiment: MST; temperature-related fluorescence intensity changes (T-jump model) on a Monolith NT.115; 250 nM Bpa-RED protomer titrated with serial dilutions of peptides 1-7; buffer M (50 mM HEPES-KOH pH 7.5, 150 mM NaCl, 5 mM MgCl2, 5% glycerol, 0.1% pluronic 127, 2% DMSO); 25°C; qualitative screen, then peptide 1 in triplicates

HspRΔC9, C-terminal truncation variant of HspR (domain or fragment)
Kd [1]: 3.62 µM

HspR H24A (natural protein)
Bpa-mediated proteasomal degradation by 20S CP WT, SDS-PAGE time course, 37°C (unlabelled Bpa) (% degraded after 2 h) [2]: 90
Kd [3]: 12.1 µM

HspR peptide 1 (residues 16-30)
Kd [4]: 330 µM

heat shock repressor HspR, wild type (natural protein)
Bpa-mediated proteasomal degradation by 20S CP WT, SDS-PAGE time course, 37°C (unlabelled Bpa) (min to degradation) [2]: < 5
Kd [1]: 5.6 µM
Kd [3]: 3.56 µM
